Assay results: PMC8639918 (2021)

Target: PHR2^(230–426 L348A/L358A/I362A) (rice, UniProt Q6Z156 230-426, L348A | L358A | I362A)
Assay: ITC; with InsP6

B1: SPX1^1–259 (C-terminally truncated fragment of rice SPX1) (domain or fragment)
chain: MKFGKSLSSQIVETLPEWRDKFLSYKDLKKRLKLIGGGGGGEERQAKRARVAADGGEEEAAAAAMTPEEAGFMRLLEAELDKFNSFFVEKEEEYIIRQKELQDRVARAAGRESKEELMRVRKEIVDFHGEMVLLENYSALNYTGLVKILKKYDKRTGALIRLPFIQKVLQQPFFTTDLLYKLVKQCEAMLDQLLPSNELSVSSEDGRGDSTNEDKPSNPSSSLVNGGTIPELDEIEYMESMYMKGTVAALRSLKEIRSG
Work on B1 yielded a Kd of 140 nM.
